From patent US10619138B2, “Herbicide-resistant hydroxyphenylpyruvate dioxygenases” (BASF SE, priority 2013, dated 2020) come the findings set out here.

Substrate in this data set: O=C(O)C(=O)Cc1ccc(O)cc1
Briefly: purified protein, by the assay type. As to conditions: other: pH 7.0, apparent, substrate inhibition model, 20.0 °C.

B1: Arabidopsis thaliana HPPD, wild type, SEQ ID NO: 42 (Arabidopsis thaliana) (protein)
chain: MGHQNAAVSENQNHDDGAASSPGFKLVGFSKFVRKNPKSDKFKVKRFHHIEFWCGDATNVARRFSWGLGMRFSAKSDLSTGNMVHASYLLTSGDLRFLFTAPYSPSLSAGEIKPTTTASIPSFDHGSCRSFFSSHGLGVRAVAIEVEDAESAFSISVANGAIPSSPPIVLNEAVTIAEVKLYGDVVLRYVSYKAEDTEKSEFLPGFERVEDASSFPLDYGIRRLDHAVGNVPELGPALTYVAGFTGFHQFAEFTADDVGTAESGLNSAVLASNDEMVLLPINEPVHGTKRKSQIQTYLEHNEGAGLQHLALMSEDIFRTLREMRKRSSIGGFDFMPSPPPTYYQNLKKRVGDVLSDDQIKECEELGILVDRDDQGTLLQIFTKPLGDRPTIFIEIIQRVGCMMKDEEGKAYQSGGCGGFGKGNFSELFKSIEEYEKTLEAKQLVG
Take B1: the Km came out at 13 µM, the kcat was found to be 12.9 s⁻¹ and the kcat/Km was 1e+06 M⁻¹ s⁻¹.

By Km is commonly meant the substrate concentration at which the rate is half of its maximum. By kcat is commonly meant the maximal rate divided by the concentration of active sites. The kcat/Km is the second-order rate constant that governs catalysis at low substrate concentration.
